Holding throughout (test): MST
One data set has as its target T1, HpDprA(5-217)H8E (Helicobacter pylori 26695, UniProt O25100 5-217, H8E).
T1 sequence: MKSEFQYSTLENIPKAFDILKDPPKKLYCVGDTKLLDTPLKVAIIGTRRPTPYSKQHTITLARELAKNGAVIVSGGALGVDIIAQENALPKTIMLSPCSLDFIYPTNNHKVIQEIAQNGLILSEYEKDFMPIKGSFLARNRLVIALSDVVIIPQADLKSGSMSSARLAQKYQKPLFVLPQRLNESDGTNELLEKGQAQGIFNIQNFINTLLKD

Another data set deals with T2, HpDprA(5-217)R52E/K137E (Helicobacter pylori 26695, UniProt O25100 5-217, R52E;K137E).
T2 sequence: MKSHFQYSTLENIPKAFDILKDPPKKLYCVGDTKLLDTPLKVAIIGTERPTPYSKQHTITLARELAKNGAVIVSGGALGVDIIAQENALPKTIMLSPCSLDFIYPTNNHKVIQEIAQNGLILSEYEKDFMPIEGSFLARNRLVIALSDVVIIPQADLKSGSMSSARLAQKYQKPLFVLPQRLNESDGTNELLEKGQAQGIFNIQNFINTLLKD

The next data set addresses T3, HpDprA(5-217)Y11E (Helicobacter pylori 26695, UniProt O25100 5-217, Y11E).
T3 sequence: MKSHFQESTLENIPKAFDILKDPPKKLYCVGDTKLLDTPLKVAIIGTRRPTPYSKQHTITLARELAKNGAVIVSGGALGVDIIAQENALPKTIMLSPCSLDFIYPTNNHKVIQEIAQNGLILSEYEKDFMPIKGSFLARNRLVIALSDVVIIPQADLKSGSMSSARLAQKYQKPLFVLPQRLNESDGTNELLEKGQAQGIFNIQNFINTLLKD

The next data set deals with T4, HpDprA full-length (Helicobacter pylori 26695, UniProt O25100 1-270).
T4 sequence: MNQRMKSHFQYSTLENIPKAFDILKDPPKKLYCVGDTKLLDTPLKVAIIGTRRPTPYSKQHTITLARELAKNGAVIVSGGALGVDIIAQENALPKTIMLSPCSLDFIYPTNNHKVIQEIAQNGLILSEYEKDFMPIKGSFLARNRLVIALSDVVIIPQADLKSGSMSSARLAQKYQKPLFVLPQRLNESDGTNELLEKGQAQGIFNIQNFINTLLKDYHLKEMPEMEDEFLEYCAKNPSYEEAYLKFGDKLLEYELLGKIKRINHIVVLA

The next data set concerns the target T5, HpDprA(5-217)K137E/R143E (Helicobacter pylori 26695, UniProt O25100 5-217, K137E;R143E).
T5 sequence: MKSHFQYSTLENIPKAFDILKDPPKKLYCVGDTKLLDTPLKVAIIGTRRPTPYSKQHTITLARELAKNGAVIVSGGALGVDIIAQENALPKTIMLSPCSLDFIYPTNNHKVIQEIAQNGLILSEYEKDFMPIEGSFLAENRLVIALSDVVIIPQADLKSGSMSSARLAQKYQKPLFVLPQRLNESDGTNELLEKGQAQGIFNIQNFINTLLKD

For another data set, the target named is T6, HpDprA(5-217)Y108E (Helicobacter pylori 26695, UniProt O25100 5-217, Y108E).
T6 sequence: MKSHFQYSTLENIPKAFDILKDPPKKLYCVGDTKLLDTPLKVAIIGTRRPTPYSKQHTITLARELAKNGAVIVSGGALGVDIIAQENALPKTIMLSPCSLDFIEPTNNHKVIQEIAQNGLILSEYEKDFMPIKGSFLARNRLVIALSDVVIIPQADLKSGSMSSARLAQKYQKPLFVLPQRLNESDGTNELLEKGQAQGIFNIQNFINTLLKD

The next data set has as its target T7, HpDprA(5-217)R52E/R143E (Helicobacter pylori 26695, UniProt O25100 5-217, R52E;R143E).
T7 sequence: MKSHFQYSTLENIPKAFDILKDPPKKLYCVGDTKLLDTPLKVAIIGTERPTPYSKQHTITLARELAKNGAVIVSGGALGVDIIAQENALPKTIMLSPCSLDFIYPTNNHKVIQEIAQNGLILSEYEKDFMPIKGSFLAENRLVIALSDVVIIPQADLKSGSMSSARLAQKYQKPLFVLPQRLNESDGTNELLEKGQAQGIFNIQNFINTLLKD

Take TTTTTTTTTTTTTTTTTTTTTTTTTTTTTTTTTTT (ssDNA) [dT35]: the equilibrium dissociation constant (Kd) with HpDprA(5-217)H8E stood at 66.3 ± 0.721 nM; in the data set with HpDprA(5-217)Y11E it was 55.9 ± 1.82 nM; with HpDprA full-length it was 2.26 ± 0.167 nM; with HpDprA(5-217)Y108E it was 351 ± 6.88 nM. For the same molecule, the binding result with HpDprA(5-217)R52E/K137E, with HpDprA(5-217)K137E/R143E and in the data set with HpDprA(5-217)R52E/R143E was “no binding” each time.

Usually Kd stands for a measure of binding affinity in units of concentration. Lower therefore signals a tighter complex.

Values taken from publication PMC3950713.
